From patent publication US20200291075A1 (TRUSTEES OF PRINCETON UNIVERSITY, published 2020)
Several values for one entry are separate records, joined by “and”; a condition that tells them apart may be missing. Equal values may be shown once. Read-outs that look alike come from different tables or passages of the source.

What was measured:
[1] = target: mCherry (purified, His-tag cleaved off); assay: BLI (Octet RED96e); His-tagged nanobody on Ni-NTA sensor, tagless mCherry in solution; no illumination
[2] = target: mCherry (purified, His-tag cleaved off); assay: OCTET BLI; His-tagged nanobody on Ni-NTA biosensor, tag-free mCherry in solution
[3] = target: iLID-CAAX; assay: cytosol-to-membrane translocation in NIH3T3 cells
[4] = target: iLID-CAAX; assay: cytosol-to-membrane redistribution in NIH3T3 cells
[5] = target: T1, YFP-SH2 (human, UniProt P00519 112-232); assay: LCAC in batch, Talon resin; share of the resin-bound target eluted by blue light
T1 construct: domain: SH2 domain; also called SH2-tagged YFP; EZ-L703
T1 sequence (looked up): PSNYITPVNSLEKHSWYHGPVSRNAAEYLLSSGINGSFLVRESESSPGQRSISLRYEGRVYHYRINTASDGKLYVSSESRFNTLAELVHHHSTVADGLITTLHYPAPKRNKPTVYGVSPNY
Description: (§1) After elution, beads were washed with imidazole to recover any remaining protein bound to the beads in order to estimate the capacity and yields of the resin.
(§2) The Resin was rotated in 50 mL conical tubes (covered with aluminum foil) at room temperature for 20 minutes and then poured in 20 mL BioRad glass Econo-Columns and washed with Buffer A (50 column volumes). […] The mixture was then vertically rotated gently for 45 minutes in 15 ml conical tubes.

[6] = target: T1, YFP-SH2; assay: LCAC in batch; His-tag bound OptoMB on Talon cobalt resin, target from crude E. coli lysate bound in the dark
Description: as §1, §2

[7] = target: T1, YFP-SH2; assay: BLI; binder on Ni-NTA sensor, YFP-SH2 in solution; lit conformation, 450 nm light
Description: (§3) Ni-NTA sensors (ForteBio) were first equilibrated using Buffer A for 10 minutes prior the measurement. A volume of 200 μL of Buffer A or protein solutions (previously dialyzed with Buffer A when needed) was added to clear, 96-well plates. During the experimental run, the Ni-NTA sensors were first immersed in Buffer A to record the baseline. […] The sensors were then transferred back into Buffer A to remove unbound protein. […] To measure the unbinding rate constant (koff), the sensors were then moved to wells containing Buffer A to trigger dissociation of YFP-SH2. To measure binding kinetics of the light state, the lid of the Octet remained open during the measurement and a blue LED panel was held above the 96-well plate, maintaining constant blue illumination for the duration of the experiment. […] The raw binding and unbinding data were simultaneously fit to models of the binding and unbinding reactions:

[8] = target: T1, YFP-SH2; assay: BLI; binder on Ni-NTA sensor, YFP-SH2 in solution; lit conformation, ambient light
Description: as §3

[9] = target: T1, YFP-SH2; assay: BLI; lit-state against dark-state OptoMB variants
Description: as §3

[10] = target: T1, YFP-SH2; assay: BLI; His-tagged binder on Ni-NTA sensor, YFP-SH2 in solution; light conformation
Description: as §3

[11] = target: T1, YFP-SH2; assay: BLI; His-tagged binder on Ni-NTA sensor, YFP-SH2 in solution; dark conformation; average of three measurements
Description: as §3

[12] = target: T1, YFP-SH2; assay: BLI; binder on Ni-NTA sensor, YFP-SH2 in solution; dark conformation, 450 nm light
Description: as §3

[13] = target: T1, YFP-SH2; assay: BLI; binder on Ni-NTA sensor, YFP-SH2 in solution; dark conformation, ambient light
Description: as §3

[14] = target: T2, His6-YFP-SH2 (human, UniProt P00519 112-232); assay: pull-down on Co2+ agarose beads with His6-YFP-SH2, crude chimera lysate, light or dark, SDS-PAGE
T2 construct: domain: SH2 domain; also called 6xHis-YFP-protein fusion
T2 sequence (looked up): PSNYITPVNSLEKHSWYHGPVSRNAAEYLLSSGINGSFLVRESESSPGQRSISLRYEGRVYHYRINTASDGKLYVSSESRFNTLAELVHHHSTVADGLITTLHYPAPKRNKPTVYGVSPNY
Description: (§4) The His6-YFP-SH2 supernatant was then mixed with 4.5 mL of a 50% suspension of Co-charged agarose resin (Talo®), previously equilibrated in Binding buffer, and incubated at 4° C., rocking for 45 min. The suspension was sedimented by gravity and the supernatant discarded. The beads were then thoroughly washed with Binding buffer with approximately 50 times the resin or column volume. The beads (now with His6-YFP-SH2 bound) were then finally resuspended in Binding buffer to a total volume of 13.5 mL. The bead suspension was equally divided into 9 conical tubes of 15 mL (having each 1.5 mL of the bead suspension). Four of these tubes were used for experiments under blue light with LED panels (450 nm and intensity of 45 μmol/m²/s) while the other four were used for experiments in the dark (wrapped in aluminum foil). Experiments were performed in a dark room and red light was used occasionally for visualization purposes. The remaining tube was left as a control for His6-YFP-SH2 binding. Samples of 2.5 mL of bacterial clarified lysates containing either the monobody HA4 supernatant or each one of the chimeras were added to separate tubes of resin. The mixtures were then incubated for 45 minutes (at 4° C. and constant vertical rotation of 20 rpm) under blue light or dark conditions. […]

[15] = target: T2, His6-YFP-SH2; assay: pull-down on His6-YFP-SH2 cobalt beads, SDS-PAGE densitometry
Description: as §4

[16] = target: T2, His6-YFP-SH2; assay: pull-down on Co2+ agarose beads with His6-YFP-SH2, crude chimera lysate, light or dark, SDS-PAGE; remark: listed apart in the source
Description: as §4

[17] = target: T1, YFP-SH2; assay: BLI; binder on Ni-NTA sensor, YFP-SH2 in solution; ambient light
[18] = target: T1, YFP-SH2; assay: BLI (Octet RED96e); His-tagged binder on Ni-NTA sensor, YFP-SH2 in solution
[19] = target: T1, YFP-SH2; assay: BLI; His-tagged binder on Ni-NTA sensor, YFP-SH2 in solution; light conformation; average of three measurements
Description: as §3

[20] = target: T1, YFP-SH2; assay: BLI; Kd of OptoMBV416L (light) against Kd of OptoMBC450V (dark)
Description: as §3

[21] = target: T3, SH2-PDC1 (human; Saccharomyces cerevisiae); assay: LCAC in batch, Talon resin; share of the resin-bound target eluted by blue light
T3 construct: No His tag; also called SH2-tagged Pdc1p; EZ-L886
T3 chain: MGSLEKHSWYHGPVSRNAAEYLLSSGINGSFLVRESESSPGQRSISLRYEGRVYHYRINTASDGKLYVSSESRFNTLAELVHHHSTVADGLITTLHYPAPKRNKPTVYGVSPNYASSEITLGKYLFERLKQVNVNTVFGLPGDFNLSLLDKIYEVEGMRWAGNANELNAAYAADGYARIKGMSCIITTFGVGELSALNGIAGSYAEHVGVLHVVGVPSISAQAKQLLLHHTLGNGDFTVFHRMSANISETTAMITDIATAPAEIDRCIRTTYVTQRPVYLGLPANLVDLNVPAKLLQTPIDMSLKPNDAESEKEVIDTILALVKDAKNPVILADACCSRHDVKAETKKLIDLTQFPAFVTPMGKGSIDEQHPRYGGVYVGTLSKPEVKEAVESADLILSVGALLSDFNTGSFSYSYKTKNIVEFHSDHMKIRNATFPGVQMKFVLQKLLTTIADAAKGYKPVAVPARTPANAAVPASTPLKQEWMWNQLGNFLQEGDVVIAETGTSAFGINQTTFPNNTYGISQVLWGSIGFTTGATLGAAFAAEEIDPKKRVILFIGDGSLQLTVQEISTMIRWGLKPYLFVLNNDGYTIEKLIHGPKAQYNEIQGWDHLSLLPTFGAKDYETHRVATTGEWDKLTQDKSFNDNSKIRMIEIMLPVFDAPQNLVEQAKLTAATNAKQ
Description: as §1, §2

[22] = target: T3, SH2-PDC1; assay: LCAC in batch; His-tag bound OptoMB on Talon cobalt resin, target from crude E. coli lysate bound in the dark
Description: as §1, §2

[23] = target: T1, YFP-SH2; assay: BLI; SUMO-tagged binder on Ni-NTA sensor, YFP-SH2 in solution; lit conformation, ambient light
Description: as §3

With “LaM8 anti-mCherry nanobody (His-tagged, purified) (VHH)” the Kd [1] was 230 nM, the koff [1] was 0.018 s⁻¹ and the kon [1] was 76000 M⁻¹ s⁻¹. The Kd [2] was 322 nM, the koff [2] was 0.02 s⁻¹ and the kon [2] was 75200 M⁻¹ s⁻¹.

BFP-SSPB-SOScat gave a change in cytosolic intensity between light and dark [3] of 60% and a change in cytosolic intensity between light conditions [4] of 60%.

B1: OptoMB (His6-tagged, wild-type AsLOV2) (designed binder)
chain: HHHHHHSSGENLYFQGHASGSSVSSVPTKLEVVAATPTSLLISWDAPMSSSSVYYYRITYGETGGNSPVQEFTVPYSGLERIEKNFVITDPRLPDNPIIFASDSFLQLTEYSREEILGRNCRFLQGPETDRATVRKIRDAIDNQTEVTVQLINYTKSGKKFWNLFHLQPMRDQKGDVQYFIGVQLDGTEHVRDAAEREGVMLIKKTAENIDEAAGSSTATISGLSPGVDYTITVYAWGEDSAGYMFMYSPISINYRTC
notes: also called OptoMB 1; OptoMB 2
With B1 the “Yield (% of recovery from the resin)” value [5] was 17.8%, the “Resin Capacity” value [6] was 5.85 mg/mL and the Kd [7] was > 100000 nM. The koff [7] was 0.21 s⁻¹, the kon [7] was < 1000 M⁻¹ s⁻¹ and the Kd [8] was > 100000 nM. The koff [8] was 0.34 s⁻¹, the kon [8] was < 1000 M⁻¹ s⁻¹ and the “fold change of kon and koff, light against dark” value [9] was ~20 fold. The koff [10] was 0.21 s⁻¹ and the kon [10] was < 1000 M⁻¹ s⁻¹.

B2: OptoMBC450V (designed binder)
chain: HHHHHHSSGENLYFQGHASGSSVSSVPTKLEVVAATPTSLLISWDAPMSSSSVYYYRITYGETGGNSPVQEFTVPYSGLERIEKNFVITDPRLPDNPIIFASDSFLQLTEYSREEILGRNVRFLQGPETDRATVRKIRDAIDNQTEVTVQLINYTKSGKKFWNLFHLQPMRDQKGDVQYFIGVQLDGTEHVRDAAEREGVMLIKKTAENIDEAAGSSTATISGLSPGVDYTITVYAWGEDSAGYMFMYSPISINYRTC
notes: also called OptoMBC450V 1; OptoMBC450V 2
Molecule B2 has a Kd [11] of 190 nM, a koff [11] of 0.01 s⁻¹ and a kon [11] of 71000 M⁻¹ s⁻¹. The Kd [12] was 270 nM, the koff [12] was 0.013 s⁻¹ and the kon [12] was 48000 M⁻¹ s⁻¹. For the same molecule, the koff [13] was 0.006 s⁻¹ and 0.013 s⁻¹ and the kon [13] was 110000 M⁻¹ s⁻¹ and 56000 M⁻¹ s⁻¹.

B3: HA4-AsLOV2 chimera, SA84 insertion (designed binder)
chain: GSSVSSVPTKLEVVAATPTSLLISWDAPMSSSSVYYYRITYGETGGNSPVQEFTVPYSSSTATISGLSPGVDYTITVYAWGEDSGLERIEKNFVITDPRLPDNPIIFASDSFLQLTEYSREEILGRNCRFLQGPETDRATVRKIRDAIDNQTEVTVQLINYTKSGKKFWNLFHLQPMRDQKGDVQYFIGVQLDGTEHVRDAAEREGVMLIKKTAENIDEAAGAGYMFMYSPISINYRTC
B3: no binding [14].

B4: HA4-AsLOV2 chimera, NS47 insertion (designed binder)
chain: GSSVSSVPTKLEVVAATPTSLLISWDAPMSSSSVYYYRITYGETGGNGLERIEKNFVITDPRLPDNPIIFASDSFLQLTEYSREEILGRNCRFLQGPETDRATVRKIRDAIDNQTEVTVQLINYTKSGKKFWNLFHLQPMRDQKGDVQYFIGVQLDGTEHVRDAAEREGVMLIKKTAENIDEAAGSPVQEFTVPYSSSTATISGLSPGVDYTITVYAWGEDSAGYMFMYSPISINYRTC
B4: no binding [14].

B5: HA4-AsLOV2 chimera, SS58 insertion, untagged (OptoMB) (designed binder)
chain: GSSVSSVPTKLEVVAATPTSLLISWDAPMSSSSVYYYRITYGETGGNSPVQEFTVPYSGLERIEKNFVITDPRLPDNPIIFASDSFLQLTEYSREEILGRNCRFLQGPETDRATVRKIRDAIDNQTEVTVQLINYTKSGKKFWNLFHLQPMRDQKGDVQYFIGVQLDGTEHVRDAAEREGVMLIKKTAENIDEAAGSSTATISGLSPGVDYTITVYAWGEDSAGYMFMYSPISINYRTC
notes: Used as crude E. coli extract in the pull-down screen; also called alphaSH2 OptoMonobody; EZ-L706
For B5, the “band intensity, dark against light” value [15] was ~2.1 fold.

B6: HA4-AsLOV2 chimera, SG65 insertion (designed binder)
chain: GSSVSSVPTKLEVVAATPTSLLISWDAPMSSSSVYYYRITYGETGGNSPVQEFTVPYSSSTATISGLERIEKNFVITDPRLPDNPIIFASDSFLQLTEYSREEILGRNCRFLQGPETDRATVRKIRDAIDNQTEVTVQLINYTKSGKKFWNLFHLQPMRDQKGDVQYFIGVQLDGTEHVRDAAEREGVMLIKKTAENIDEAAGGLSPGVDYTITVYAWGEDSAGYMFMYSPISINYRTC
B6: no binding [16].

B7: Monobody HA4 (His6-tagged, purified) (designed binder)
chain: HHHHHHSSGENLYFQGHASGSSVSSVPTKLEVVAATPTSLLISWDAPMSSSSVYYYRITYGETGGNSPVQEFTVPYSSSTATISGLSPGVDYTITVYAWGEDSAGYMFMYSPISINYRTC
In the case of B7, the Kd [17] is reported as 280 nM, the koff [17] is reported as 0.0145 s⁻¹ and the kon [17] is reported as 51000 M⁻¹ s⁻¹. For the same molecule, the Kd [18] was 230 nM, the koff [18] was 0.0145 s⁻¹ and the kon [18] was 63100 M⁻¹ s⁻¹.

B8: OptoMBV416L (designed binder)
chain: HHHHHHGSGSGSDQEAKPSTEDLGDKKEGEYIKLKVIGQDSSEIHFKVKMTTHLKKLKESYCQRQGVPMNSLRFLFEGQRIADNHTPKELGMEEEDVIEVYQEQTGGHMASKGSSVSSVPTKLEVVAATPTSLLISWDAPMSSSSVYYYRITYGETGGNSPVQEFTVPYSGLERIEKNFLITDPRLPDNPIIFASDSFLQLTEYSREEILGRNCRFLQGPETDRATVRKIRDAIDNQTEVTVQLINYTKSGKKFWNLFHLQPMRDQKGDVQYFIGVQLDGTEHVRDAAEREGVMLIKKTAENIDEAAGSSTATISGLSPGVDYTITVYAWGEDSAGYMFMYSPISINYRTC
notes: T0006 lists the V416L plasmid with His6-SUMO; also called OptoMBV416L 1; OptoMBV416L 2
Work on B8 yielded a Kd [19] of 63000 nM, a koff [19] of 0.23 s⁻¹ and a kon [19] of 4000 M⁻¹ s⁻¹. The “fold change in binding affinity, light against dark” value [20] was ~330 fold, the Kd [7] was 60000 nM and 42000 nM and the koff [7] was 0.2 s⁻¹ and 0.24 s⁻¹. The kon [7] was 3300 M⁻¹ s⁻¹ and 5800 M⁻¹ s⁻¹, the Kd [8] was 87000 nM and the koff [8] was 0.25 s⁻¹. For the same molecule, the kon [8] was 2900 M⁻¹ s⁻¹.

B9: OptoMBV416I_G528A_N538E (His6-SUMO tagged) (designed binder)
chain: HHHHHHGSGSGSDQEAKPSTEDLGDKKEGEYIKLKVIGQDSSEIHFKVKMTTHLKKLKESYCQRQGVPMNSLRFLFEGQRIADNHTPKELGMEEEDVIEVYQEQTGGHMASKGSSVSSVPTKLEVVAATPTSLLISWDAPMSSSSVYYYRITYGETGGNSPVQEFTVPYSGLERIEKNFIITDPRLPDNPIIFASDSFLQLTEYSREEILGRNCRFLQGPETDRATVRKIRDAIDNQTEVTVQLINYTKSGKKFWNLFHLQPMRDQKGDVQYFIGVQLDGTEHVRDAAEREAVMLIKKTAEEIDEAAGSSTATISGLSPGVDYTITVYAWGEDSAGYMFMYSPISINYRTC
notes: also called OptoMBTriple
For B9, the “Yield (% of recovery from the resin)” value [5] was 29.8%, the “Yield (% of recovery from the resin)” value [21] was 39% and the “Resin Capacity” value [6] was 4.5 mg/mL. For the same molecule, the “Resin Capacity” value [22] was 5.24 mg/mL, the Kd [23] was > 100000 nM and the koff [23] was 0.1 s⁻¹ and 0.13 s⁻¹. The kon [23] was < 1000 M⁻¹ s⁻¹.
